Drawing on patent US20200317768A1 (published 2020), this text covers Kd for 25 molecules.

T1: human FcγRIIb extracellular domain, His-tagged (human, UniProt P31994 43-217)
T1 construct: also called FcgRIIb (human)
T1 sequence: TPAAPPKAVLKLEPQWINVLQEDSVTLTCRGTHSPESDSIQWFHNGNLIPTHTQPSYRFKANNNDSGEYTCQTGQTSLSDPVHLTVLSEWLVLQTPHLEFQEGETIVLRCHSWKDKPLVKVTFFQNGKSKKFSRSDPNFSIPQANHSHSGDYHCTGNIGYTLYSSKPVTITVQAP

B1: MS_M103205H795-SG1/M103202L889-SK1 (antibody, human IgG1, kappa)
heavy: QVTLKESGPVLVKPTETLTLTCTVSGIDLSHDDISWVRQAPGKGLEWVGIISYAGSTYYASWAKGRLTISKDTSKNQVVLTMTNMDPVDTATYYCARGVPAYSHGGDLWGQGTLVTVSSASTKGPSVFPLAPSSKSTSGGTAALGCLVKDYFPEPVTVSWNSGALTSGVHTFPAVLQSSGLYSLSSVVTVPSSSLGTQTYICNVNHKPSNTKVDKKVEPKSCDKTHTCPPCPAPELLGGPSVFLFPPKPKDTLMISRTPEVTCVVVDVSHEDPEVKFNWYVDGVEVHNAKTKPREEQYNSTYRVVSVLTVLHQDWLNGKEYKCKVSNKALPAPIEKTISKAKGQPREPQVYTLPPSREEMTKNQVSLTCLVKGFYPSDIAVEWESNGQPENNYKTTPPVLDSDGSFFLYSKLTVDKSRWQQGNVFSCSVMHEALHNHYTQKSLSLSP
light: DIVMTQSPATLSLSPGERATLSCTSSQSVYHANWLSWFQQKPGQPPKLLIYWASTLAYGVPSRFSGSGSGTDFTLTISSLQPEDAATYYCAGGYGGGRYAFGQGTKVEIKRTVAAPSVFIFPPSDEQLKSGTASVVCLLNNFYPREAKVQWKVDNALQSGNSQESVTEQDSKDSTYSLSSTLTLSKADYEKHKVYACEVTHQGLSSPVTKSFNRGEC
notes: Parent antibody of the Fc variants; heavy chain constant region SG1, light chain M103202L889-SK1; also called MS1032LO06-SG1
B2: M103205H795-MY013/M103202L889-SK1 (antibody, human IgG1, kappa)
heavy: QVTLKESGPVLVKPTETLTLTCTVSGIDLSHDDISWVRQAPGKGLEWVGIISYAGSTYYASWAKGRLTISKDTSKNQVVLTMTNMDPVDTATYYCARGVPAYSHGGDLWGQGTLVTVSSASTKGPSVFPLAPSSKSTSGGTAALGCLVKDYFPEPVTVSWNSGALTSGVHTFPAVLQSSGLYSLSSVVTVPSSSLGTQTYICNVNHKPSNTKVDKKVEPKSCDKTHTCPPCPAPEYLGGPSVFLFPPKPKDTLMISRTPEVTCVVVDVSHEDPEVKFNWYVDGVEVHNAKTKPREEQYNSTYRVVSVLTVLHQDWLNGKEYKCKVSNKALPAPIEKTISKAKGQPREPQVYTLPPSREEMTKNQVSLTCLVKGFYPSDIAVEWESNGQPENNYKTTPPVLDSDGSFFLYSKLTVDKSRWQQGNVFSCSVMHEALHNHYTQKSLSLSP
light: B1 light
notes: Substitution put into M103205H795-SG1
B3: M103205H795-MY069/M103202L889-SK1 (antibody, human IgG1, kappa)
heavy: not shown
light: B1 light
notes: as for B2
B4: M103205H795-MY041/M103202L889-SK1 (antibody, human IgG1, kappa)
heavy: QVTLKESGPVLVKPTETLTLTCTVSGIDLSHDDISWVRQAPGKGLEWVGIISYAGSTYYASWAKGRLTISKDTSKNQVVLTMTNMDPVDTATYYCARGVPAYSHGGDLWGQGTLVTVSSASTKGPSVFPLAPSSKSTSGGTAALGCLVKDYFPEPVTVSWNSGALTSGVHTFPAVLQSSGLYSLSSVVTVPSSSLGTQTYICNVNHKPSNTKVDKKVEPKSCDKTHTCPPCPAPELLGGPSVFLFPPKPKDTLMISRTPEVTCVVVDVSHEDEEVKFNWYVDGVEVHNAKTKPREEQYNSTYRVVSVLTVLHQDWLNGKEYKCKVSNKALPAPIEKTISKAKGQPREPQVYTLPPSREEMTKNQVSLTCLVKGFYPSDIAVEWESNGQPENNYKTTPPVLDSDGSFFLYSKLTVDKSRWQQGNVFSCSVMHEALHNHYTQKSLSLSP
light: B1 light
notes: as for B2
B5: M103205H795-MY010/M103202L889-SK1 (antibody, human IgG1, kappa)
heavy: not shown
light: B1 light
notes: as for B2
B6: M103205H795-MY038/M103202L889-SK1 (antibody, human IgG1, kappa)
heavy: not shown
light: B1 light
notes: as for B2
B7: M103205H795-MY048/M103202L889-SK1 (P271D) (antibody, human IgG1, kappa)
heavy: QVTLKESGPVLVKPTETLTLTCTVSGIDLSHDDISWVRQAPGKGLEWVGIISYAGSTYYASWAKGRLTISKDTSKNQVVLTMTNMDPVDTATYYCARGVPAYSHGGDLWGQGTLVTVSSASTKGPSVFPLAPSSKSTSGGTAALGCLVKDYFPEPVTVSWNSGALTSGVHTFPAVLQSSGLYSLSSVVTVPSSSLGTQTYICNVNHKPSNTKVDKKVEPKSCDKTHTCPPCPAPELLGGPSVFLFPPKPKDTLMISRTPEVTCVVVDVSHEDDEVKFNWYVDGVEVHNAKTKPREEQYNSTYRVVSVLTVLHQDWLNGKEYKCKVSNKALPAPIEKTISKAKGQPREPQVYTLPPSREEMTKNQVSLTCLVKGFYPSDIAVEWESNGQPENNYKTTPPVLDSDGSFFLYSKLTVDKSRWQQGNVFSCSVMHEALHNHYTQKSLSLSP
light: B1 light
notes: Here the P271D molecule is meant; Put into M103205H795-SG1
B8: M103205H795-MY016/M103202L889-SK1 (antibody, human IgG1, kappa)
heavy: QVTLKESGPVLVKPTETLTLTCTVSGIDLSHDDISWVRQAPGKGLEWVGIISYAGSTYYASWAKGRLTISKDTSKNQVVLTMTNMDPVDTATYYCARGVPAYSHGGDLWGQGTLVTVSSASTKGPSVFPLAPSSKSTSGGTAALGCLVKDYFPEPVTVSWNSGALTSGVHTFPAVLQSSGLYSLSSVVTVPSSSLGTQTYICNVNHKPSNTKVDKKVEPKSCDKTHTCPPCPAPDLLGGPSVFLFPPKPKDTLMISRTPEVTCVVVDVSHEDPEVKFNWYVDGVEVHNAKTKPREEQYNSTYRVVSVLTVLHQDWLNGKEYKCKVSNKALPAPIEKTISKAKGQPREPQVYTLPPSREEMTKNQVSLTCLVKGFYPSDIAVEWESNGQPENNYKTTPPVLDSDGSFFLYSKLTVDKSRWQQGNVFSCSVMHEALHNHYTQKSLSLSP
light: B1 light
notes: as for B2
B9: M103205H795-MY072/M103202L889-SK1 (antibody, human IgG1, kappa)
heavy: not shown
light: B1 light
notes: as for B2
B10: M103205H795-MY045/M103202L889-SK1 (antibody, human IgG1, kappa)
heavy: not shown
light: B1 light
notes: as for B2
B11: M103205H795-MY037/M103202L889-SK1 (antibody, human IgG1, kappa)
heavy: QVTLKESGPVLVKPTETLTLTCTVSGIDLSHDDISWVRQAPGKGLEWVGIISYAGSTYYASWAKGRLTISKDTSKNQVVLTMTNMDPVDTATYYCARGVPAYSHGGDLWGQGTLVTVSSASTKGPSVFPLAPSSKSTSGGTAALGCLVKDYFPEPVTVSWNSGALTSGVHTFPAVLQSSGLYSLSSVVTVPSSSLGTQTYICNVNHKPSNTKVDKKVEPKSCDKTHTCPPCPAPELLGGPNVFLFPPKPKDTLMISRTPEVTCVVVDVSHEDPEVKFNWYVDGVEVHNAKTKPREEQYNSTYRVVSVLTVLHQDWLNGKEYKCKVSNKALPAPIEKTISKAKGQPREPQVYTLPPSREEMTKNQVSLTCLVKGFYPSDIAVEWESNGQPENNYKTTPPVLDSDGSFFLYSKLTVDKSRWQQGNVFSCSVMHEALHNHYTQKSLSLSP
light: B1 light
notes: as for B2
B12: M103205H795-MY073/M103202L889-SK1 (antibody, human IgG1, kappa)
heavy: not shown
light: B1 light
notes: as for B2
B13: M103205H795-MY063/M103202L889-SK1 (antibody, human IgG1, kappa)
heavy: not shown
light: B1 light
notes: as for B2
B14: M103205H795-MY014/M103202L889-SK1 (antibody, human IgG1, kappa)
heavy: not shown
light: B1 light
notes: as for B2
B15: M103205H795-MY124/M103202L889-SK1 (antibody, human IgG1, kappa)
heavy: not shown
light: B1 light
notes: as for B2
B16: M103205H795-MY071/M103202L889-SK1 (antibody, human IgG1, kappa)
heavy: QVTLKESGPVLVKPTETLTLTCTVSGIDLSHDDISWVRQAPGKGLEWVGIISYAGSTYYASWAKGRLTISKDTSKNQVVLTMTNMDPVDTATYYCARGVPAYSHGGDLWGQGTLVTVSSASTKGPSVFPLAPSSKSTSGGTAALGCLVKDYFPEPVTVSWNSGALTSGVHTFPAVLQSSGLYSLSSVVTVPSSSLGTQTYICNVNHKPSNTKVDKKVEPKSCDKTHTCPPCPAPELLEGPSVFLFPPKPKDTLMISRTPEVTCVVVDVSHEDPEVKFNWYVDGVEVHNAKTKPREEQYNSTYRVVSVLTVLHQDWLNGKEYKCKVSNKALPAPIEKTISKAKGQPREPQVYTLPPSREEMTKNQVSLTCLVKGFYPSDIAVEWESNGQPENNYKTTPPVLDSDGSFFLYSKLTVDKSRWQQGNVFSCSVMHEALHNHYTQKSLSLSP
light: B1 light
notes: as for B2
B17: M103205H795-MY065/M103202L889-SK1 (antibody, human IgG1, kappa)
heavy: not shown
light: B1 light
notes: as for B2
B18: M103205H795-MY043/M103202L889-SK1 (antibody, human IgG1, kappa)
heavy: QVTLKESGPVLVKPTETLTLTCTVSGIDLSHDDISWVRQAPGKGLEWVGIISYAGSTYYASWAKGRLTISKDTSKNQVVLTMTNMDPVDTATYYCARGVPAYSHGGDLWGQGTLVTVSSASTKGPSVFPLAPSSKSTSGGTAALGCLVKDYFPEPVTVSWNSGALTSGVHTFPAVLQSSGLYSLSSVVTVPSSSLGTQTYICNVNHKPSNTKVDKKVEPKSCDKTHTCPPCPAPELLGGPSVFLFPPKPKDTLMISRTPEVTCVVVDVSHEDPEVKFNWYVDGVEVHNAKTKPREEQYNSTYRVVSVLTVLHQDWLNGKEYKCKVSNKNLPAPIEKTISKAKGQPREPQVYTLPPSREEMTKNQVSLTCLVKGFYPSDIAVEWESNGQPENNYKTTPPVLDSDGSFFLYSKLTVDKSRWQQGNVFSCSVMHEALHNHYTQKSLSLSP
light: B1 light
notes: as for B2
B19: M103205H795-MY196/M103202L889-SK1 (antibody, human IgG1, kappa)
heavy: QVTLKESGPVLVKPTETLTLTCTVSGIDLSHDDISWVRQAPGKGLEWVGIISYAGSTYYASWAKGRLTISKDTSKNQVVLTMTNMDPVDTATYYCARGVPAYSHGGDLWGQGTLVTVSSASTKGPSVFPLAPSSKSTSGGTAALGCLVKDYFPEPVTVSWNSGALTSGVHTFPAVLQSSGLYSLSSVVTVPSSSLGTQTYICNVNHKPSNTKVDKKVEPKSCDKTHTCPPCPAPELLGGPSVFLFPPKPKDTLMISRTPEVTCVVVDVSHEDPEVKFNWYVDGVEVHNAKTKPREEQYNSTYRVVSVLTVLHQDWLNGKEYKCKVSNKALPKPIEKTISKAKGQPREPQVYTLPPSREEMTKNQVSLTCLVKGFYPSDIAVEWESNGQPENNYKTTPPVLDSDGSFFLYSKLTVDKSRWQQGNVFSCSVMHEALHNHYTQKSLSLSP
light: B1 light
notes: as for B2
B20: M103205H795-MY006/M103202L889-SK1 (antibody, human IgG1, kappa)
heavy: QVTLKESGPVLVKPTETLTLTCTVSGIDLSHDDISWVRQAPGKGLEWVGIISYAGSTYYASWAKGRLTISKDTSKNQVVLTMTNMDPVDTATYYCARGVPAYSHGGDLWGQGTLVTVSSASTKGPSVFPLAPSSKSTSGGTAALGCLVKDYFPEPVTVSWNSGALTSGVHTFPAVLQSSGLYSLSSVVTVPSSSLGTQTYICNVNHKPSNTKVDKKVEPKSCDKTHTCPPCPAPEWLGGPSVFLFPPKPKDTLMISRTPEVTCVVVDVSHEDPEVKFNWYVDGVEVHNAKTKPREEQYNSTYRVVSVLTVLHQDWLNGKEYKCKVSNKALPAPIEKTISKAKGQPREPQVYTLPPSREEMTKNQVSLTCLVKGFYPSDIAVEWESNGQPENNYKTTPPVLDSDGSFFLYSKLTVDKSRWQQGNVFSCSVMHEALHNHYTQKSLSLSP
light: B1 light
notes: as for B2
B21: M103205H795-MY044/M103202L889-SK1 (antibody, human IgG1, kappa)
heavy: not shown
light: B1 light
notes: as for B2
B22: M103205H795-MY008/M103202L889-SK1 (antibody, human IgG1, kappa)
heavy: not shown
light: B1 light
notes: as for B2
B23: M103205H795-MY064/M103202L889-SK1 (antibody, human IgG1, kappa)
heavy: not shown
light: B1 light
notes: as for B2
B24: M103205H795-MY070/M103202L889-SK1 (antibody, human IgG1, kappa)
heavy: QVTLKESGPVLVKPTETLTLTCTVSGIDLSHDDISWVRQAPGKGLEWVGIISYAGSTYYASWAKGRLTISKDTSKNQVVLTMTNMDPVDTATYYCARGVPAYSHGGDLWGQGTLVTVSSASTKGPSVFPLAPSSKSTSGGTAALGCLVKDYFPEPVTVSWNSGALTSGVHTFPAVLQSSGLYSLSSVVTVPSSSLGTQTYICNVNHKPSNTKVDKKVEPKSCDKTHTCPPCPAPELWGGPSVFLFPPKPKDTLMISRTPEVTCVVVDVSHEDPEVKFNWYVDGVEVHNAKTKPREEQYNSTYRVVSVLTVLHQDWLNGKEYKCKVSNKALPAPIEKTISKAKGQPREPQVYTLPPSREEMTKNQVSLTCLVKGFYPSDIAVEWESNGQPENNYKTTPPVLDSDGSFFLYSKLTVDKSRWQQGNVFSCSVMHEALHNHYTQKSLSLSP
light: B1 light
notes: as for B2
B25: M103205H795-MY068/M103202L889-SK1 (antibody, human IgG1, kappa)
heavy: not shown
light: B1 light
notes: as for B2

The target in this test is T1, human FcγRIIb extracellular domain, …. Nature of the test: SPR, antibody captured, FcgR analyte.
For B1, the equilibrium dissociation constant (Kd) turned out to be 4600 nM. In other words, the single-digit micromolar range.
The same measure for B2: 3700 nM.
As for B3, the dissociation constant Kd turned out to be 1600 nM. Compared with the last molecule, the Kd is about 2.3-fold lower.
The same measure for B4: 3100 nM.
Then B5, with 9100 nM; and B6, with 2600 nM; and B7, with 3000 nM.
Turning to B8, binding was put at a Kd of 2900 nM.
The same measure for B9: 1500 nM.
Turning to B10, the dissociation constant (Kd) came to 2900 nM.
Then B11, with 2600 nM.
Then B12, with 2000 nM.
Molecule B13 displayed a Kd of 660 nM.
The same measure for B14: 4800 nM.
B15 registered a Kd of 9200 nM.
The same measure for B16: 8100 nM; for B17: 1900 nM; for B18: 3000 nM.
Then B19, with 6200 nM.
The molecule B20 displayed a Kd of 2300 nM. This Kd lies about 2.7-fold lower than the previous one.
Then B21, with 3300 nM; and B22, with 2600 nM.
The same measure for B23: 2400 nM; for B24: 2600 nM; for B25: 2100 nM.
